From article PMC10292028
Numbering of substitutions follows the chain as printed. Names and notes keep the numbering of the source.

B1: 6DMATSmo (Micromonospora olivasterospora) (protein)
chain: MAGLSVSDHLDGQLARLCEVAGADPVEPRNLLAGLLGPVGPRPLYEPPAWPSGVSDDHTPVEFSIAFNEAEPPTLRILGETLGSPPGPLANLSATRGFLDAQARRAGLSTSRLDSVRDLFATDDPQGDFAMWCSLVFRSSRRPEFKVYLNPEVKGVERSPALVSEALHRLGLGASYRALLDHGVRPGELGRGDRLTFFAVDLHDGPQARVKLYLTHHEAEVWDVTRAASVVDGVDVAEIEEFCVVAGGGTRRFDGRPLVGSYTFTEGADRPVGYSIYVPIRSYVTDDQEARDRVAALLVRYGFDTDGLDRAIAAVTPRPLRDGVGLIAHVSLRLGAPRPGVTVYLSAEAYRVSPPRPRRMPAGRDVSPAPVGRTRP
B2: 6DMATSmo (Micromonospora olivasterospora; Y277H) (protein)
chain: B1 chain with Y277H
B3: 6DMATSmo (Micromonospora olivasterospora; H329Y) (protein)
chain: B1 chain with H329Y
B4: 6DMATSmo (Micromonospora olivasterospora; H329Y/Y277H) (protein)
chain: B1 chain with Y277H, H329Y
B5: PriB (Streptomyces sp. RM-5-8) (protein)
chain: MGGPMSGFHSGEALLGDLATGQLTRLCEVAGLTEADTAAYTGVLIESLGTSAGRPLSLPPPSRTFLSDDHTPVEFSLAFLPGRAPHLRVLVEPGCSSGDDLAENGRAGLRAVHTMADRWGFSTEQLDRLEDLFFPSSPEGPLALWCALELRSGGVPGVKVYLNPAANGADRAAETVREALARLGHLQAFDALPRADGFPFLALDLGDWDAPRVKIYLKHLGMSAADAGSLPRMSPAPSREQLEEFFRTAGDLPAPGDPGPTEDTGRLAGRPALTCHSFTETATGRPSGYTLHVPVRDYVRHDGEARDRAVAVLREHDMDSAALDRALAAVSPRPLSDGVGLIAYLALVHQRGRPTRVTVYVSSEAYEVRPPRETVPTRDRARARL

Experiments:
[1] = substrate: N[C@@H](Cc1c[nH]c2ccccc12)C(=O)O; assay: HPLC end-point assay, Michaelis-Menten fit; format: biochemical, Micromonospora olivasterospora; conditions: 2 mM DMAPP, 50 mM Tris pH 8.0, 37 °C
[2] = substrate: N[C@@H](Cc1c[nH]c2ccccc12)C(=O)O; assay: HPLC end-point assay, Michaelis-Menten fit; format: biochemical, Streptomyces sp. RM-5-8; conditions: 2 mM DMAPP, 50 mM Tris pH 8.0, 37 °C

Protein | Km [1] | kcat [1] | kcat/Km [1] | Km [2] | kcat [2] | kcat/Km [2]
B1 | (33.1 ± 2.5) × 10^−2 mM | 0.0917 ± 0.00167 s⁻¹ | 277 M⁻¹ s⁻¹ |  |  | 
B2 | (38.2 ± 0.1) × 10^−2 mM | 0.00108 ± 3.33e-05 s⁻¹ | 2.83 M⁻¹ s⁻¹ |  |  | 
B3 | (26.7 ± 1.6) × 10^−2 mM | 0.000783 ± 1.17e-05 s⁻¹ | 2.93 M⁻¹ s⁻¹ |  |  | 
B4 | 1000 ± 100 µM | 0.00182 ± 3.33e-05 s⁻¹ | 1.82 M⁻¹ s⁻¹ |  |  | 
B5 |  |  |  | (42.9 ± 6.9) × 10^−2 mM | 0.33 ± 0.0133 s⁻¹ | 770 M⁻¹ s⁻¹
